Assays:
[1] = tested on: mouse aortic endothelial cells (MAE); assay: Endothelial tube formation on Matrigel; type: cell-based; conditions: for ED50: endothelial tube assay (FIGS. 30 and 31)
Method: To measure inhibition of endothelial tube formation, 320 μl of Matrigel (Collaborative Biomedical Products, Bedford, Mass., USA) was added to each well of a 24-well plate and allowed to polymerize (Grant, D. S. et al., 1994, Pathol. Res. Pract. 190:854-63). A suspension of 25,000 mouse aortic endothelial cells (MAE) in EGM-2 medium (Clonetics Corp., San Diego, Calif., USA) without antibiotic was passed into each well coated with Matrigel. The cells were treated with increasing concentrations of either Arresten, BSA, sterile PBS or the 7S domain. All assays were performed in triplicate. Cells were incubated for 24-48 hours at 37° C. and viewed using a CK2 Olympus microscope (3.3 ocular, 10× objective). The cells were then photographed using 400 DK coated TMAX film (Kodak). Cells were stained with diff-quik fixative (Sigma Chemical Company, St. Louis, Mo., USA) and photographed again. Ten fields were viewed, and the tubes counted and averaged.
Matrigel (Collaborative Biomedical Products, Bedford, Mass., USA) was added ([…]) to each well of a 24 well plate and allowed to polymerize (Grant, D. S. et al., supra). A suspension of 25,000 mouse aortic endothelial cells (MAE) in EGM-2 (Clonetics Corporation, San Diego, Calif., USA) medium without antibiotic was passed into each well coated with Matrigel. The cells were treated with either Canstatin, BSA, sterile PBS or α5-NC1 domain in increasing concentrations. All assays were performed in triplicate. Cells were incubated for 24-48 hours at 37° C. and viewed using a CK2 Olympus microscope (3.3 ocular, 10× objective). The cells were then photographed using 400 DK coated TMAX film (Kodak). Cells were stained with diff-quik fixative (Sigma Chemical Co., St. Louis, Mo., USA) and photographed again (Grant, D. S. et al., 1994, Pathol. Res. Pract. 190:854-63). Ten fields were viewed, tubes counted and averaged.
Matrigel (Collaborative Biomedical Prods., Bedford, Mass., USA) was added ([…]) to each well of a 24-well plate and allowed to polymerize (Grant, D. S. et al., 1994, Pathol. Res. Pract. 190:854-63). A suspension of 25,000 MAE cells in EGM-2 medium (Clonetics Corporation, San Diego, Calif., USA) without antibiotic was passed into each well coated with Matrigel (Grant, D. S. et al., 1994, Pathol. Res. Pract. 190:854-63). The cells were treated with either Tumstatin, BSA or 7S domain in increasing concentrations. Control cells were incubated with sterile PBS. All assays were performed in triplicate. Cells were incubated for 24-48 hours at 37° C. and viewed using a CK2 Olympus microscope (magnification of 3.3× ocular, 10× objective). The cells were then photographed using 400 DK coated TMAX film (Kodak). Cells were stained with diff-quik fixative (Sigma Chemical Co.) and photographed again (Grant, D. S. et al., 1994, Pathol. Res. Pract. 190:854-63). Ten fields were viewed, and the number of tubes were counted by two investigators unaware of the experimental protocols, and averaged.
Fragments and mutants of Arresten and Canstatin were also made according to the Pseudomonas elastase digestions of Mariyama et al. (1992, J. Biol. Chem. 267:1253-58). The digest was resolved by gel filtration HPLC and the resultant fragments were analyzed by SDS-PAGE and evaluated in the endothelial tube assay described above. These fragments included a 12 kDa fragment of Arresten, an 8 kDa fragment of Arresten, and a 10 kDa fragment of Canstatin. In addition, two fragments of Tumstatin (‘333’ and ‘334’) were generated by PCR cloning.

C-PAE cells = assay: Competitive proliferation assay with anti-Tum-4 antibody; type: cell-based, bovine; conditions: 1.5 μg/ml
Method: To determine if Turn-1 's inhibition of endothelial cell proliferation could be nullified by anti-Tum-4 antibody, a competitive proliferation assay was performed as described in Example 26, above. Tum-1 was preincubated with anti-Tum-4 antibody for the purpose of at least partially blocking the αvβ3 integrin binding site. It was then used in endothelial cell proliferation assays.
The results are shown in FIGS. 38A and 38B, which are histograms showing proliferation of C-PAE cells (y-axis) treated with 1.5 μg/ml Tum-1 (FIG. 38A) or Tum-2 (FIG. 38B) that had been preincubated with anti-Tum-4 antibody (1:100, 1:200, 1:500 dilution) (x-axis). Each column represents the mean ±the standard error of the mean for triplicate wells. The experiments were repeated three times. Asterisks indicate P<0.05 by one-tailed Student's t-test.

HUVECs = assay: Endothelial tube formation on Matrigel; type: cell-based, human
Method: Tumstatin-44-131 was also found to inhibit endothelial tube formation, as shown by Matrigel assay. The Matrigel assay was performed as described in the examples above. Briefly, HUVECS were allowed to form tubes on Matrigel-coated plates incubated with or without 5 μg/ml E. Coli-expressed Tumstatin-44-131. BSA-treated cells and yeast-expressed human endostatin (5 and 20 μg/ml) was used as controls. […] The average percentage tube branch formation after treatment was 22.7±3.1 for the BSA treatment, 2.1±2.0 for Tumstatin-44-131 treatment, while the 5 μg/ml and 20 μg/ml endostatin produced an average of 19.4±3.0 and 7.5±6.0, respectively.

MLEC β3−/− = assay: Protein synthesis and cap-dependent translation in β3-integrin deficient endothelial cells; type: cell-based, mouse; conditions: 4.5 μM; rapamycin 100 ng/ml
From the text: Therefore, to evaluate the effect of tumstatin peptides on cap-dependent and independent translation, endothelial cells were isolated from lungs of 12-week-old mice that were deficient in the expression of αvβ3 integrin (i.e., 3 integrin-deficient mice), and also their wild-type counterparts (Hodivala-Dilke, K. M. et al., 1999, J. Clin. Invest. 103:229-38). Briefly, ICAM-2 expressing MLEC were enriched using rat anti-mouse ICAM-2 (# 01800D, PharMingen, San Diego, Calif., USA) conjugated to magnetic beads (Dynabeads M-450, Dynal, Oslo, Norway). MLEC were maintained in 40% Ham's F-12,40% DME-Low Glucose, 20% FBS supplemented with heparin, endothelial mitogen (Biomedical Technologies, Inc., Cambridge, Mass., USA), glutamine and penicillin/streptomycin. Wild-type and β3-integrin-deficient mouse embryonic fibroblasts were prepared (Hodivala-Dilke, K. M. et al., 1999, J. Clin. Invest. 103:229-38). MEFs were maintained in DMEM containing 10% FBS. MLEC were characterized for homogeneity by morphological observations and by immunofluorescence staining for endothelial-specific markers. Cells between passage 3 and 6 were used for the experiments.

Row | Molecule | ED50 [1] [mg/L] | anti-proliferative effect after pre-incubation with anti-Tum-4 antibody (C-PAE cells) | average percentage tube branch formation (HUVECs; 5 μg/ml, BSA 22.7±3.1) | cap-dependent protein synthesis in αvβ3 integrin deficient (β3−/−) endothelial cells (MLEC β3−/−) | also measured
1 | Canstatin: NC1 domain of the α2 chain of Type IV collagen (SEQ ID NO:6) (protein, listed as Homo sapiens) VSIGYLLVKHSQTDQEPMCPVGMNKLWSGYSLLYFEGQEKAHNQDLGLAGSCLARFSTMPFLYCNPGDVCYYASRNDKSYWLSTTAPLPMMPVAEDEIKPYISRCSVCEAPAIAIAVHSQDVSIPHCPAGWRSLWIGYSFLMHTAAGDEGGGQSLVSPGSCLEDFRATPFIECNGGRGTCHYYANKYSFWLTTIPEQSFQGSPSADTLKAGLIRTHISRCQVCMKNL | 0.4 | – | – | – | inhibition of tube formation ([1]; 1 mg of Canstatin protein produced in 293 cells): near complete inhibition
2 | Tum-1: residues 54 to 244 of Tumstatin, lacking the N-terminal 53 amino acids (SEQ ID NO:22) (protein, Tum-1 (Tumstatin N-53) (amino acids 54-244 of SEQ ID NO10)) QRAHGQDLGTLGSCLQRFTTMPFLFCNVNDVCNFASRNDYSYWLSTPALMPMNMAPITGRALEPYISRCTVCEGPAIAIAVHSQTTDIPPCPHGWISLWKGFSFIMFTSAGSEGTGQALASPGSCLEEFRASPFLECHGRGTCNYYSNSYSFWLASLNPERMFRKPIPSTVKAGELEKIISRCQVCMKKRH | – | not altered | – | – | –
3 | Tumstatin-44-131: residues 44 to 131 of full-length Tumstatin (SEQ ID NO:33) (protein, Tumstatin-45-132 (amino acids 45-132 of SEQ ID NO10)) FSFLFVQGNQRAHGQDLGTLGSCLQRFTTMPFLFCNVNDVCNFASRNDYSYWLSTPALMPMNMAPITGRALEPYISRCTVCEGPAIAI | – | – | 2.1±2.0 | – | –
4 | endostatin: tumor associated angiogenesis inhibitor used as comparator (protein, UniProt P39060 1572-1754, looked up, Endostatin) Endostatin: HSHRDFQPVLHLVALNSPLSGGMRGIRGADFQCFQQARAVGLAGTFRAFLSSRLQDLYSIVRRADRAAVPIVNLKDELLFPSWEALFSGSEGPLKPGARIFSFDGKDVLRHPTWPQKSVWHGSDPNGRRLTESYCETWRTEAPSATGQASSLLGGRLLGQSAASCHHAYIVLCIENSFMTASK | – | – | 19.4±3.0 | did not exhibit this property | average percentage tube branch formation (HUVECs; 20 μg/ml endostatin): 7.5±6.0
5 | Tum-2: residues 1 to 132 of Tumstatin (SEQ ID NO:23) (protein, Tum-2 (amino acids 1-132 of SEQ ID NO10)) GLKGKRGDSGSPATWTTRGFVFTRHSQTTAIPSCPEGTVPLYSGFSFLFVQGNQRAHGQDLGTLGSCLQRFTTMPFLFCNVNDVCNFASRNDYSYWLSTPALMPMNMAPITGRALEPYISRCTVCEGPAIAI | – | not affected | – | – | –
6 | Tumstatin: NC1 domain of the α3 chain of type IV collagen, residues 1-244 (SEQ ID NO:10) (protein, listed as Homo sapiens) GLKGKRGDSGSPATWTTRGFVFTRHSQTTAIPSCPEGTVPLYSGFSFLFVQGNQRAHGQDLGTLGSCLQRFTTMPFLFCNVNDVCNFASRNDYSYWLSTPALMPMNMAPITGRALEPYISRCTVCEGPAIAIAVHSQTTDIPPCPHGWISLWKGFSFIMFTSAGSEGTGQALASPGSCLEEFRASPFLECHGRGTCNYYSNSYSFWLASLNPERMFRKPIPSTVKAGELEKIISRCQVCMKKRH | 0.55 | – | – | did not have any effect | concentration of maximum inhibition [1]: 800 to 1000 ng/mL; Percentage of tube formation after treatment ([1]; 1 mg/ml of protein, produced in 293 cells): 14.0±4.0

Reference: patent publication US7387779B2, “Anti-angiogenic proteins and fragments and methods of use thereof” (Beth Israel Deaconess Medical Center, priority 1998, dated 2008)
